Assay results: patent US12168686

What was measured:
[1] = molecular target: soluble DR5-Fc fusion protein (UniProt O14763); assay: BLI (ForteBio Octet), ratio of koff against TRAIL-Trimer
[2] = molecular target: soluble DR5-Fc fusion protein (UniProt O14763); assay: BLI (ForteBio Octet), ratio of kon against TRAIL-Trimer
[3] = molecular target: soluble DR5-Fc fusion protein (UniProt O14763); assay: BLI (ForteBio Octet), biotin-labeled DR5-Fc on streptavidin sensors
[4] = molecular target: soluble DR5-Fc fusion protein (UniProt O14763); assay: BLI (ForteBio Octet), biotin-labeled DR5-Fc on streptavidin sensors, analyte 15.4 nM-123.5 nM

Sequence of soluble DR5-Fc fusion protein (O14763 56-182 limits assumed): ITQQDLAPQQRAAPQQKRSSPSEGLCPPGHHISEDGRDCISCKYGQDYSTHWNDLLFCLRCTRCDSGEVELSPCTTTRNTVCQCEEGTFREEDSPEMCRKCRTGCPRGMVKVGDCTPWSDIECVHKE
Sequence of native TRAIL (recombinant soluble human TRAIL from E. coli) (P50591 114-281 limits assumed): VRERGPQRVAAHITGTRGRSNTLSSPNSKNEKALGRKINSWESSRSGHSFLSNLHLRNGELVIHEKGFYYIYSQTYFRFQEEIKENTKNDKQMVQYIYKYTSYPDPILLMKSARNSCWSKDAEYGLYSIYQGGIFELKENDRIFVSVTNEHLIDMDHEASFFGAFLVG

fold faster dissociation than TRAIL-Trimer [1]: > 460 fold
fold faster association than TRAIL-Trimer [2]: 2 fold
koff [3]: 4.6e-05 s⁻¹
kon [3]: 175000 M⁻¹ s⁻¹
Kd [4]: 0.263 nM
Substance: native TRAIL (recombinant soluble human TRAIL from E. coli) (from UniProt P50591 114-281) (ligand)
